Series [1] addresses ^mChSpindly^Y26BPA (human) (UniProt Q96EA4). The series can be described thus: mass photometry; Refeyn TwoMP; sample diluted to a final 10 nM in Spindly buffer (50 mM Hepes pH 8.0, 250 mM NaCl, 2 mM TCEP); crosslinked samples measured after dilution beside untreated controls.
Series [2] deals with the molecule itself. Described as above.
In the next series the target is T1, Spindly^250–605 (human, UniProt Q96EA4 250-605).
T1 construct: also called CC2 and CC3; source: TnAO38 insect cells (baculovirus), purified (HisTrap, Resource Q, Superdex 200)
T1 sequence (looked up): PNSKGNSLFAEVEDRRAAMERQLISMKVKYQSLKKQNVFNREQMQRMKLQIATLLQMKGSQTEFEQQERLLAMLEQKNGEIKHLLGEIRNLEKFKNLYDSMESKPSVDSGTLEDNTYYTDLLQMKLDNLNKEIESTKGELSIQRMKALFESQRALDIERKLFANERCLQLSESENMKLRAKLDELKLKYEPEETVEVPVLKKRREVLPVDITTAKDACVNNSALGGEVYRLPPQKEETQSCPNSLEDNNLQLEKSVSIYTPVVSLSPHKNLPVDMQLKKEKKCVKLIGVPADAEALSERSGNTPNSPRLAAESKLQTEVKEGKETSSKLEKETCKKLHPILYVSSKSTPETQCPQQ
The series can be described thus: SEC; Spindly N-terminal and C-terminal fragments mixed, 10 µM each; 4°C, Spindly buffer; fractions on SDS-PAGE. As to conditions: both partners purified. In general terms: SEC sorts molecules by how far they enter the pores of the column.

Series [3] deals with T2, mCherry-tagged full-length Spindly (^mChSpindly^FL) (human), Q96EA4.
T2 chain: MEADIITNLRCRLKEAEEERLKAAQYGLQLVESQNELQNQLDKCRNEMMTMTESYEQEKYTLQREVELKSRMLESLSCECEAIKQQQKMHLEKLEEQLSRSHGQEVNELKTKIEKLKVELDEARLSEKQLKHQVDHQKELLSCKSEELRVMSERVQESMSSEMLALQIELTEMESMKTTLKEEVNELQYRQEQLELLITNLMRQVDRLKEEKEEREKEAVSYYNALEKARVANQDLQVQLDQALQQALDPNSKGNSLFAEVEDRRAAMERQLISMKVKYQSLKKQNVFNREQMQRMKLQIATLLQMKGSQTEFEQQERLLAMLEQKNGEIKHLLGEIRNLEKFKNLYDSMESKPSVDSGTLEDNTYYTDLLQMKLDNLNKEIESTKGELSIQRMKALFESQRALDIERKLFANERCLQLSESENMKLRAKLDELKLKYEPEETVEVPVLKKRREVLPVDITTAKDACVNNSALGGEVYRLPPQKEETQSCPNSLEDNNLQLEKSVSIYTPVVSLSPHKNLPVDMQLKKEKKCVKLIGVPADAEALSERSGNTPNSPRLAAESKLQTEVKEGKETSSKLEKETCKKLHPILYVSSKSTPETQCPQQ
Description: mass photometry; Refeyn TwoMP; sample diluted to a final 10 nM in Spindly buffer (50 mM Hepes pH 8.0, 250 mM NaCl, 2 mM TCEP); crosslinked samples measured after dilution beside untreated controls. As to conditions: remark: other sources report otherwise.

Series [4] addresses T3, full-length Spindly without mCherry tag (human), Q96EA4.
T3 chain: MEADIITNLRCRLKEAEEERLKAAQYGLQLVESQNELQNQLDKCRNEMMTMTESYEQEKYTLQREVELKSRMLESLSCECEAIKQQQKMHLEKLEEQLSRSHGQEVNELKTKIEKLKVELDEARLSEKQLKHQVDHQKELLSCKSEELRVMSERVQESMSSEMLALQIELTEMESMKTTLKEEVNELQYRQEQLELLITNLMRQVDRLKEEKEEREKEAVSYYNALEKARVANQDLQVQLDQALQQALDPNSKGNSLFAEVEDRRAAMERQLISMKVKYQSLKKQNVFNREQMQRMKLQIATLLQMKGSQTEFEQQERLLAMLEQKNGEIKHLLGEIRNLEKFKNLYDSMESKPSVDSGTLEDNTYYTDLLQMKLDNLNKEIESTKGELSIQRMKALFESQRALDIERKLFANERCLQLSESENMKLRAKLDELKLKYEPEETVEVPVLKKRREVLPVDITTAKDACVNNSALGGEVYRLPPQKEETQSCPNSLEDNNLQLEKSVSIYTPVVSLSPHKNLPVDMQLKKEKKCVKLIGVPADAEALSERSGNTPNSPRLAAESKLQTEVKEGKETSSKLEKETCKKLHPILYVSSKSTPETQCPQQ
The description is as above. As to conditions: remark: other sources report otherwise.

The stoichiometry N is a count of units in the complex or per binding partner. Molecule “^mChSpindly^Y26BPA (from UniProt Q96EA4 1-605) (natural protein)” gave a stoichiometry N in series [1] of 2.

B1: ^mChSpindly^76–605 (domain or fragment, human, UniProt Q96EA4 76-605, looked up)
chain: LSCECEAIKQQQKMHLEKLEEQLSRSHGQEVNELKTKIEKLKVELDEARLSEKQLKHQVDHQKELLSCKSEELRVMSERVQESMSSEMLALQIELTEMESMKTTLKEEVNELQYRQEQLELLITNLMRQVDRLKEEKEEREKEAVSYYNALEKARVANQDLQVQLDQALQQALDPNSKGNSLFAEVEDRRAAMERQLISMKVKYQSLKKQNVFNREQMQRMKLQIATLLQMKGSQTEFEQQERLLAMLEQKNGEIKHLLGEIRNLEKFKNLYDSMESKPSVDSGTLEDNTYYTDLLQMKLDNLNKEIESTKGELSIQRMKALFESQRALDIERKLFANERCLQLSESENMKLRAKLDELKLKYEPEETVEVPVLKKRREVLPVDITTAKDACVNNSALGGEVYRLPPQKEETQSCPNSLEDNNLQLEKSVSIYTPVVSLSPHKNLPVDMQLKKEKKCVKLIGVPADAEALSERSGNTPNSPRLAAESKLQTEVKEGKETSSKLEKETCKKLHPILYVSSKSTPETQCPQQ
notes: source: E. coli BL21 CodonPlus, purified (HisTrap, Resource Q, Superdex 200); not shown: mCherry, N-terminal, kept
As for B1, the “stoichiometry N” value in series [2] was determined as 2.

B2: Spindly^1–250 (domain or fragment, human, UniProt Q96EA4 1-250, looked up)
chain: MEADIITNLRCRLKEAEEERLKAAQYGLQLVESQNELQNQLDKCRNEMMTMTESYEQEKYTLQREVELKSRMLESLSCECEAIKQQQKMHLEKLEEQLSRSHGQEVNELKTKIEKLKVELDEARLSEKQLKHQVDHQKELLSCKSEELRVMSERVQESMSSEMLALQIELTEMESMKTTLKEEVNELQYRQEQLELLITNLMRQVDRLKEEKEEREKEAVSYYNALEKARVANQDLQVQLDQALQQALDP
notes: also called CC1; source: TnAO38 insect cells (baculovirus), purified (HisTrap, Resource Q, Superdex 200)
Regarding B2, the binding result with Spindly^250–605 is given as “binds”.

B3: mCherry-tagged full-length Spindly (^mChSpindly^FL), Q96EA4 1-605 (natural protein)
chain: MEADIITNLRCRLKEAEEERLKAAQYGLQLVESQNELQNQLDKCRNEMMTMTESYEQEKYTLQREVELKSRMLESLSCECEAIKQQQKMHLEKLEEQLSRSHGQEVNELKTKIEKLKVELDEARLSEKQLKHQVDHQKELLSCKSEELRVMSERVQESMSSEMLALQIELTEMESMKTTLKEEVNELQYRQEQLELLITNLMRQVDRLKEEKEEREKEAVSYYNALEKARVANQDLQVQLDQALQQALDPNSKGNSLFAEVEDRRAAMERQLISMKVKYQSLKKQNVFNREQMQRMKLQIATLLQMKGSQTEFEQQERLLAMLEQKNGEIKHLLGEIRNLEKFKNLYDSMESKPSVDSGTLEDNTYYTDLLQMKLDNLNKEIESTKGELSIQRMKALFESQRALDIERKLFANERCLQLSESENMKLRAKLDELKLKYEPEETVEVPVLKKRREVLPVDITTAKDACVNNSALGGEVYRLPPQKEETQSCPNSLEDNNLQLEKSVSIYTPVVSLSPHKNLPVDMQLKKEKKCVKLIGVPADAEALSERSGNTPNSPRLAAESKLQTEVKEGKETSSKLEKETCKKLHPILYVSSKSTPETQCPQQ
B3 showed a stoichiometry N in series [3] of 2.

B4: full-length Spindly without mCherry tag, Q96EA4 1-605 (natural protein)
chain: MEADIITNLRCRLKEAEEERLKAAQYGLQLVESQNELQNQLDKCRNEMMTMTESYEQEKYTLQREVELKSRMLESLSCECEAIKQQQKMHLEKLEEQLSRSHGQEVNELKTKIEKLKVELDEARLSEKQLKHQVDHQKELLSCKSEELRVMSERVQESMSSEMLALQIELTEMESMKTTLKEEVNELQYRQEQLELLITNLMRQVDRLKEEKEEREKEAVSYYNALEKARVANQDLQVQLDQALQQALDPNSKGNSLFAEVEDRRAAMERQLISMKVKYQSLKKQNVFNREQMQRMKLQIATLLQMKGSQTEFEQQERLLAMLEQKNGEIKHLLGEIRNLEKFKNLYDSMESKPSVDSGTLEDNTYYTDLLQMKLDNLNKEIESTKGELSIQRMKALFESQRALDIERKLFANERCLQLSESENMKLRAKLDELKLKYEPEETVEVPVLKKRREVLPVDITTAKDACVNNSALGGEVYRLPPQKEETQSCPNSLEDNNLQLEKSVSIYTPVVSLSPHKNLPVDMQLKKEKKCVKLIGVPADAEALSERSGNTPNSPRLAAESKLQTEVKEGKETSSKLEKETCKKLHPILYVSSKSTPETQCPQQ
Take B4: in series [4], the stoichiometry N came to 2.

The values above are taken from article PMC9481740 (The Journal of Cell Biology, 2022).
